# Measurements published in paper doi:10.1101/2023.03.26.534243.
# Legend:
# Assay in all cases: BLI
# [1] = target: FcγRIIIa_(V176) (UniProt P08637)
# [2] = target: FcγRIIa_(H167) (UniProt P12318)
# [3] = target: FcγRIIb/c (UniProt P31994)
# [4] = target: FcγRIa (UniProt P12314)
# [5] = target: FcγRIIIa_(F176) (UniProt P08637)
# UniProt P12314, sequence (P12314 16-292): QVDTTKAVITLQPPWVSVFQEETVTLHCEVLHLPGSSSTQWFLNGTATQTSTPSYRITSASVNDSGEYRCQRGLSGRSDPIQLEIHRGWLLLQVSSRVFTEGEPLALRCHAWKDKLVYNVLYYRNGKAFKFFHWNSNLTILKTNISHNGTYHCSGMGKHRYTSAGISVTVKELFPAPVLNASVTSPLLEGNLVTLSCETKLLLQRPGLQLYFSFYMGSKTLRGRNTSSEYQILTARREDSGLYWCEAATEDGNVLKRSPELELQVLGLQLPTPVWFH
# UniProt P31994, sequence (P31994 43-217): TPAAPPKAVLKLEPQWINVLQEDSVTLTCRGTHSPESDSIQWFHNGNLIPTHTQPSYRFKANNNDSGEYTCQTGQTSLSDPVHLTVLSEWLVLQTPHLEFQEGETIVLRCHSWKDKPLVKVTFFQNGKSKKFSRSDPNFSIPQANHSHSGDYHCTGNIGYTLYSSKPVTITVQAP
# UniProt P12318, sequence (P12318 34-217): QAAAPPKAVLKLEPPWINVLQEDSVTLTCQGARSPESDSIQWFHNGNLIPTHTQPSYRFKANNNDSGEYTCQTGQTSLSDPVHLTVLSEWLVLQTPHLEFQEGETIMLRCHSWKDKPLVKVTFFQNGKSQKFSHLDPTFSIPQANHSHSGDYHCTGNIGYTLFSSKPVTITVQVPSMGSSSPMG
substance,measurement,setting,value
Pertuzumab IgG3 VH3 (antibody),Kd,[1],181 nM
same,koff,[1],0.0178 s⁻¹
same,kon,[1],13500 M⁻¹ s⁻¹
same,Kd,[2],5.75 nM
Pertuzumab IgG3 VH4 (antibody),Kd,[1],88.7 nM
same,kon,[3],72900 M⁻¹ s⁻¹
Pertuzumab IgG4 VH3 (antibody),Kd,[4],127 nM
Pertuzumab IgG4 VH2 (antibody),Kd,[4],75.7 nM
Pertuzumab IgG4 VH7 (antibody),Kd,[4],20.7 nM
Pertuzumab IgG4 VH5 (antibody),Kd,[4],151 nM
Pertuzumab IgG2 VH3 (antibody),kon,[3],308000 M⁻¹ s⁻¹
Pertuzumab IgG3 VH1 (antibody),Kd,[5],92.9 nM
same,koff,[5],0.0328 s⁻¹
same,kon,[5],160000 M⁻¹ s⁻¹
same,koff,[4],0.000553 s⁻¹
same,kon,[4],208000 M⁻¹ s⁻¹
Pertuzumab IgG3 VH5 (antibody),koff,[2],0.00279 s⁻¹
same,Kd,[3],24.8 nM
Pertuzumab IgG2 VH1 (antibody),kon,[3],176000 M⁻¹ s⁻¹
Pertuzumab IgG4 VH4 (antibody),Kd,[4],191 nM
Pertuzumab IgG2 VH4 (antibody),kon,[2],360000 M⁻¹ s⁻¹
same,koff,[3],0.00934 s⁻¹
Pertuzumab IgG4 VH1 (antibody),Kd,[4],3.62 nM
Pertuzumab IgG4 VH6 (antibody),Kd,[4],7.15 nM
